Here are results for one substance from patent publication US20190298850A1.

This assay has as its target IL-21 (human) (UniProt Q9HBE4). The assay is described as follows: cell-based or functional assay.
Chain of UniProt Q9HBE4 (Q9HBE4 25-162 limits assumed): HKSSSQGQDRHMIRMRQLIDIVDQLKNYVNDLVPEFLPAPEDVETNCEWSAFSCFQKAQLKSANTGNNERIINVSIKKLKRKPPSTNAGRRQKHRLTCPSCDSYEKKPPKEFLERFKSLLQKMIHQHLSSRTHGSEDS

“IL-21R-Ig fusion protein (from UniProt Q9HBE5 20-232) (Fc fusion)” gave a decrease in plasma cell differentiation of memory B cells co-cultured with blood PD-1hi CXCR5+ or PD-1hi CXCR5- CD4+ T cells of 90%.
